# Reference: patent publication US20240287138A1 (Merck Sharp & Dohme, published 2024)
# Numbered stars: 1 amine (or outer) side, 2 acyl side, 3 side chain; on linkers, the order of the positions; unused ones are H or OH. Bridge positions count the residues as written; N and C are the ends. Square brackets hold non-standard residues; d marks the D form. Primed or numbered codes have the meaning given here. 4Pal2F = (S)-2-Amino-3-(3-fluoropyridin-4-yl)propanoic acid, O=C([C@H](Cc1ccncc1F)N[*:1])[*:2]; bhcLeu = (1R,3S)-3-aminocyclopentane-1-carboxylic acid, O=C([C@@H]1CC[C@H](N[*:1])C1)[*:2]; AhpF3 = (S)-2-Amino-7,7,7-trifluoroheptanoic acid, O=C([C@H](CCCCC(F)(F)F)N[*:1])[*:2]; Trp(1-CH2CO) = O=C([C@H](Cc1cn(CC(=O)[*:3])c2ccccc12)N[*:1])[*:2]; Ala(2-carboxypyrimidin-5-yl) = N[C@@H](Cc1cnc(C(=O)O)nc1)C(=O)O; Trp(βS-Me,7-OMe) = COc1cccc2c([C@H](C)[C@H](N)C(=O)O)c[nH]c12; Phe(3R-OH) = O=C([C@@H](N[*:1])[C@H](O[*:3])c1ccccc1)[*:2]; Ala(1-bicyclo(1.1.1)pentyl) = N[C@@H](CC12CC(C1)C2)C(=O)O; NEtdA = N-ethyl-D-alanine, CCN([C@H](C)C(=O)[*:2])[*:1]; Phe(4-SO3H) = N[C@@H](Cc1ccc(S(=O)(=O)O)cc1)C(=O)O; Trp(7-Cl) = N[C@@H](Cc1c[nH]c2c(Cl)cccc12)C(=O)O; Phe(4-CONH2) = NC(=O)c1ccc(C[C@H](N)C(=O)O)cc1; Phe(4-COOH) = N[C@@H](Cc1ccc(C(=O)O)cc1)C(=O)O; Trp(7-aza) = N[C@@H](Cc1c[nH]c2ncccc12)C(=O)O; Pip(5R-OH) = O=C(O)[C@@H]1CC[C@@H](O)CN1; Val(3-OH) = CC(C)(O)[C@H](N)C(=O)O; Pip(4-aza) = O=C(O)[C@@H]1CNCCN1; 4Pal = N[C@@H](Cc1ccncc1)C(=O)O; NMeE = CN[C@@H](CCC(=O)O)C(=O)O; dHyp = O=C(O)[C@H]1C[C@H](O)CN1; Morpip6diMe = not defined here; dbhcLeu = not defined here; αMeS = C[C@](N)(CO)C(=O)O; Nle = CCCC[C@H](N)C(=O)O; Pip′ = not defined here; Sar = CNCC(=O)O
# T1: TNFR1 on THP-1 Lucia NF-κB cells (UniProt P19438 30-455, limits assumed)
# T1 sequence (looked up): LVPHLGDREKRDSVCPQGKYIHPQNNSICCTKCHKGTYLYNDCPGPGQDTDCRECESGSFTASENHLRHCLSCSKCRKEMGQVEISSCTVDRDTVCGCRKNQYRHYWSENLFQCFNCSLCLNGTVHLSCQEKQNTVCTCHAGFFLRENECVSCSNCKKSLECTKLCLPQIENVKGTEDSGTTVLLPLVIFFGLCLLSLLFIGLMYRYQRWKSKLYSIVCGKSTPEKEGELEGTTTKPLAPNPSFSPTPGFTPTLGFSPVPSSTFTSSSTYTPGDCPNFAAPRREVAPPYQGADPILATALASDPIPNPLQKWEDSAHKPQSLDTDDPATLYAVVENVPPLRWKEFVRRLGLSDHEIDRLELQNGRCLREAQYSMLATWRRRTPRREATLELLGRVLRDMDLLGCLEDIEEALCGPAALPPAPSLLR
# B1: SEQ ID NO. 213 (peptide)
# peptide: cyclo([bhcLeu][AhpF3][4Pal][Pip(4-aza)]W[NMeE]N[4Pal][Trp(7-Cl)][αMeS][Phe(4-COOH)]Y[Sar][Trp(βS-Me,7-OMe)])
# SMILES: COc1cccc2c([C@H](C)[C@@H]3NC(=O)CN(C)C(=O)[C@H](Cc4ccc(O)cc4)NC(=O)[C@H](Cc4ccc(C(=O)O)cc4)NC(=O)[C@](C)(CO)NC(=O)[C@H](Cc4c[nH]c5c(Cl)cccc45)NC(=O)[C@H](Cc4ccncc4)NC(=O)[C@H](CC(N)=O)NC(=O)[C@H](CCC(=O)O)N(C)C(=O)[C@H](Cc4c[nH]c5ccccc45)NC(=O)[C@@H]4CNCCN4C(=O)[C@H](Cc4ccncc4)NC(=O)[C@H](CCCCC(F)(F)F)NC(=O)[C@@H]4CC[C@@H](C4)NC3=O)c[nH]c12
# B2: SEQ ID NO. 198 (peptide)
# peptide: cyclo([bhcLeu][Nle][4Pal][Pip(4-aza)]W[NMeE]N[4Pal2F][Trp(7-Cl)][αMeS][Phe(4-COOH)]Y[Sar][Trp(βS-Me,7-OMe)])
# SMILES: CCCC[C@@H]1NC(=O)[C@@H]2CC[C@@H](C2)NC(=O)[C@H]([C@@H](C)c2c[nH]c3c(OC)cccc23)NC(=O)CN(C)C(=O)[C@H](Cc2ccc(O)cc2)NC(=O)[C@H](Cc2ccc(C(=O)O)cc2)NC(=O)[C@](C)(CO)NC(=O)[C@H](Cc2c[nH]c3c(Cl)cccc23)NC(=O)[C@H](Cc2ccncc2F)NC(=O)[C@H](CC(N)=O)NC(=O)[C@H](CCC(=O)O)N(C)C(=O)[C@H](Cc2c[nH]c3ccccc23)NC(=O)[C@@H]2CNCCN2C(=O)[C@H](Cc2ccncc2)NC1=O
# B3: SEQ ID NO. 201 (peptide)
# peptide: cyclo([bhcLeu][Nle][4Pal2F][Pip(4-aza)]W[NMeE]N[4Pal][Trp(7-Cl)][αMeS][Phe(4-COOH)]Y[Sar][Trp(βS-Me,7-OMe)])
# SMILES: CCCC[C@@H]1NC(=O)[C@@H]2CC[C@@H](C2)NC(=O)[C@H]([C@@H](C)c2c[nH]c3c(OC)cccc23)NC(=O)CN(C)C(=O)[C@H](Cc2ccc(O)cc2)NC(=O)[C@H](Cc2ccc(C(=O)O)cc2)NC(=O)[C@](C)(CO)NC(=O)[C@H](Cc2c[nH]c3c(Cl)cccc23)NC(=O)[C@H](Cc2ccncc2)NC(=O)[C@H](CC(N)=O)NC(=O)[C@H](CCC(=O)O)N(C)C(=O)[C@H](Cc2c[nH]c3ccccc23)NC(=O)[C@@H]2CNCCN2C(=O)[C@H](Cc2ccncc2F)NC1=O
# B4: SEQ ID NO. 186 (peptide)
# peptide: {CH2CO}-[Nle][4Pal][Pip(5R-OH)]W[NEtdA]N[4Pal][Trp(7-Cl)][αMeS][Phe(4-CONH2)]Y[Sar][Trp(βS-Me,7-OMe)]C-NH2
# modifications: thioether N-14
# SMILES: CCCC[C@@H]1NC(=O)CSC[C@@H](C(N)=O)NC(=O)[C@H]([C@@H](C)c2c[nH]c3c(OC)cccc23)NC(=O)CN(C)C(=O)[C@H](Cc2ccc(O)cc2)NC(=O)[C@H](Cc2ccc(C(N)=O)cc2)NC(=O)[C@](C)(CO)NC(=O)[C@H](Cc2c[nH]c3c(Cl)cccc23)NC(=O)[C@H](Cc2ccncc2)NC(=O)[C@H](CC(N)=O)NC(=O)[C@@H](C)N(CC)C(=O)[C@H](Cc2c[nH]c3ccccc23)NC(=O)[C@@H]2CC[C@@H](O)CN2C(=O)[C@H](Cc2ccncc2)NC1=O
# B5: SEQ ID NO. 199 (peptide)
# peptide: cyclo([bhcLeu][Nle][4Pal][Pip(4-aza)]W[NMeE]N[4Pal][Trp(7-Cl)][αMeS][Phe(4-SO3H)]Y[Sar][Trp(βS-Me,7-OMe)])
# SMILES: CCCC[C@@H]1NC(=O)[C@@H]2CC[C@@H](C2)NC(=O)[C@H]([C@@H](C)c2c[nH]c3c(OC)cccc23)NC(=O)CN(C)C(=O)[C@H](Cc2ccc(O)cc2)NC(=O)[C@H](Cc2ccc(S(=O)(=O)O)cc2)NC(=O)[C@](C)(CO)NC(=O)[C@H](Cc2c[nH]c3c(Cl)cccc23)NC(=O)[C@H](Cc2ccncc2)NC(=O)[C@H](CC(N)=O)NC(=O)[C@H](CCC(=O)O)N(C)C(=O)[C@H](Cc2c[nH]c3ccccc23)NC(=O)[C@@H]2CNCCN2C(=O)[C@H](Cc2ccncc2)NC1=O
# B6: SEQ ID NO. 217 (peptide)
# peptide: {CH2CO}-[Nle]H[Val(3-OH)][Trp(7-aza)][NMeE]N[4Pal][Trp(7-Cl)][αMeS][Phe(4-COOH)]Y[Sar][Trp(βS-Me,7-OMe)]C-NH2
# modifications: thioether N-14
# SMILES: CCCC[C@@H]1NC(=O)CSC[C@@H](C(N)=O)NC(=O)[C@H]([C@@H](C)c2c[nH]c3c(OC)cccc23)NC(=O)CN(C)C(=O)[C@H](Cc2ccc(O)cc2)NC(=O)[C@H](Cc2ccc(C(=O)O)cc2)NC(=O)[C@](C)(CO)NC(=O)[C@H](Cc2c[nH]c3c(Cl)cccc23)NC(=O)[C@H](Cc2ccncc2)NC(=O)[C@H](CC(N)=O)NC(=O)[C@H](CCC(=O)O)N(C)C(=O)[C@H](Cc2c[nH]c3ncccc23)NC(=O)[C@H](C(C)(C)O)NC(=O)[C@H](Cc2c[nH]cn2)NC1=O
# B7: SEQ ID NO. 191 (peptide)
# peptide: cyclo([bhcLeu][Nle][4Pal][Pip(5R-OH)]W[dHyp]N[Phe(4-COOH)][Trp(7-Cl)][αMeS][Phe(4-CONH2)][Ala(2-carboxypyrimidin-5-yl)][Sar][Trp(βS-Me,7-OMe)])
# SMILES: CCCC[C@@H]1NC(=O)[C@@H]2CC[C@@H](C2)NC(=O)[C@H]([C@@H](C)c2c[nH]c3c(OC)cccc23)NC(=O)CN(C)C(=O)[C@H](Cc2cnc(C(=O)O)nc2)NC(=O)[C@H](Cc2ccc(C(N)=O)cc2)NC(=O)[C@](C)(CO)NC(=O)[C@H](Cc2c[nH]c3c(Cl)cccc23)NC(=O)[C@H](Cc2ccc(C(=O)O)cc2)NC(=O)[C@H](CC(N)=O)NC(=O)[C@H]2C[C@H](O)CN2C(=O)[C@H](Cc2c[nH]c3ccccc23)NC(=O)[C@@H]2CC[C@@H](O)CN2C(=O)[C@H](Cc2ccncc2)NC1=O
# B8: SEQ ID NO. 197 (peptide)
# peptide: cyclo([bhcLeu][Nle][4Pal][Pip(4-aza)][Trp(1-CH2CO)][NMeE]N[4Pal][Trp(7-Cl)][αMeS][Phe(4-COOH)]Y[Sar][Trp(βS-Me,7-OMe)])
# SMILES: CCCC[C@@H]1NC(=O)[C@@H]2CC[C@@H](C2)NC(=O)[C@H]([C@@H](C)c2c[nH]c3c(OC)cccc23)NC(=O)CN(C)C(=O)[C@H](Cc2ccc(O)cc2)NC(=O)[C@H](Cc2ccc(C(=O)O)cc2)NC(=O)[C@](C)(CO)NC(=O)[C@H](Cc2c[nH]c3c(Cl)cccc23)NC(=O)[C@H](Cc2ccncc2)NC(=O)[C@H](CC(N)=O)NC(=O)[C@H](CCC(=O)O)N(C)C(=O)[C@H](Cc2cn(CC(=O)O)c3ccccc23)NC(=O)[C@@H]2CNCCN2C(=O)[C@H](Cc2ccncc2)NC1=O
# B9: SEQ ID NO. 211 (peptide)
# peptide: {CH2CO}-[Nle][4Pal][Phe(3R-OH)][Trp(7-aza)][NMeE]N[4Pal][Trp(7-Cl)][αMeS][Phe(4-COOH)]Y[Sar][Trp(βS-Me,7-OMe)]C-NH2
# modifications: thioether N-14
# SMILES: CCCC[C@@H]1NC(=O)CSC[C@@H](C(N)=O)NC(=O)[C@H]([C@@H](C)c2c[nH]c3c(OC)cccc23)NC(=O)CN(C)C(=O)[C@H](Cc2ccc(O)cc2)NC(=O)[C@H](Cc2ccc(C(=O)O)cc2)NC(=O)[C@](C)(CO)NC(=O)[C@H](Cc2c[nH]c3c(Cl)cccc23)NC(=O)[C@H](Cc2ccncc2)NC(=O)[C@H](CC(N)=O)NC(=O)[C@H](CCC(=O)O)N(C)C(=O)[C@H](Cc2c[nH]c3ncccc23)NC(=O)[C@H]([C@H](O)c2ccccc2)NC(=O)[C@H](Cc2ccncc2)NC1=O
# B10: SEQ ID NO. 214 (peptide)
# peptide: cyclo([dbhcLeu][Nle][4Pal][Morpip6diMe]W[NMeE]N[4Pal][Trp(7-Cl)][αMeS][Phe(4-CONH2)]Y[Sar][Trp(βS-Me,7-OMe)])
# modifications: reading uncertain; also: printed as cyclo(dbhcLeu-Nle-4Pal-Morpip6diMe-W-NMeE-N-4Pal-Trp7Cl-aMeS-Phe4CONH2-Y-Sar-SbMeW7OMe)
# B11: SEQ ID NO. 190 (peptide)
# peptide: cyclo([bhcLeu][Ala(1-bicyclo(1.1.1)pentyl)][4Pal][Pip(4-aza)]W[NMeE]N[4Pal][Trp(7-Cl)][αMeS][Phe(4-COOH)]Y[Sar][Trp(βS-Me,7-OMe)])
# SMILES: COc1cccc2c([C@H](C)[C@@H]3NC(=O)CN(C)C(=O)[C@H](Cc4ccc(O)cc4)NC(=O)[C@H](Cc4ccc(C(=O)O)cc4)NC(=O)[C@](C)(CO)NC(=O)[C@H](Cc4c[nH]c5c(Cl)cccc45)NC(=O)[C@H](Cc4ccncc4)NC(=O)[C@H](CC(N)=O)NC(=O)[C@H](CCC(=O)O)N(C)C(=O)[C@H](Cc4c[nH]c5ccccc45)NC(=O)[C@@H]4CNCCN4C(=O)[C@H](Cc4ccncc4)NC(=O)[C@H](CC45CC(C4)C5)NC(=O)[C@@H]4CC[C@@H](C4)NC3=O)c[nH]c12
# Biological target: T1, TNFR1 on THP-1 Lucia NF-κB cells
# Assay: cell-based or functional assay
row,THP-1 IC50 [nM],Binder
1,1,B1
2,0.8,B2
3,0.9,B3
4,1.9,B4
5,4,{CH2CO}-[Nle][4Pal][Pip′]W[NMeE]N[4Pal][Trp(7-Cl)][αMeS][Phe(4-COOH)]Y[Sar][SbMeW7Me]C-NH2 (thioether N-14) [SEQ ID NO. 208]
6,1,B5
7,4.4,B6
8,1.6,B7
9,0.7,B8
10,3.3,B9
11,3.7,B10
12,1.6,B11
